Laboratory results taken from a protein production outcome set (Wang et al. 2014).

Assay: label from the status in PepcDB records

Row | Sequence | protein production
1 | MIEFDNLTYLHGKPQGTGLLKANPEDFVVVEDLGFEPDGEGEHILVRILKNGCNTRFVADALAKFLKIHAREVSFAGQKDKHAVTEQWLCARVPGKEMPDLSAFQLEGCQVLEYARHKRKLRLGALKGNAFTLVLREVSNRDDVEQRLIDICVKGVPNYFGAQRFGIGGSNLQGAQRWAQTNTPVRDRNKRSFWLSAARSALFNQIVAERLKKADVNQVVDGDALQLAGRGSWFVATTEELAELQRRVNDKELMITAALPGSGEWGTQREALAFEQAAVAAETELQALLVREKVEAARRAMLLYPQQLSWNWWDDVTVEIRFWLPAGSFATSVVRELINTTGDYAHIAE | not failed
2 | MIEFITPRTFLFSTQTVVFSVLLFVFYIFYRTFSRKYVKYWLMSIGALNFSYLIKSFVPYSSRNFSSDSWQILAELLLQIFQYSFLIFLIFGVYIAKNNKELSKEILSGGIGAIIILSVISTMFFAFDPSQAFNHFYLTISLPSFIFGCTFLSLACYLLFDKKSYFSSQVLMYFSAIFGLRYLMHSFISIVALTEPWFRQLELFLLYFDVAAHSILGFTLLIWMQGAERFATLSAISRAQYLGKHDSLTGALNREQVMAKLSDKMQELTHANKINKNQMKLAVFLIDIKQFKFINDTYGLKVGDFILGEIASRLNHSVFIPQAVGRLSGDSFMFVIEFEQISHVDRAVNHIHELIERCFRYEQQEITIQGSVGYCFYPDDADKSEDLLQKSNLALHHAETNNIPSVAFEEGMQAQGRHLVLMEKQLRSAIANDEFVLYYQPQLNLFTNKLEGVEALVRWQHPEKGLLSPGDFLTELETLGMHNEFDNYILVKACQASERWFKLYQRRVAIAVNITAVEFQNEQLVTNIQMLLHKYGIPSKYIELEITENVVMTDITRAMDSIVKLQSMGIKVSIDDFGTGYSSLAYLRDLPIDKIKIDRSFINEVAINDSDLTIVKSMVDLSHGLGKRVLAEGVETIEQLNLLRHLGCDAVQGYFISKPLPESKLVRYLKKK | failed
3 | MIEIRKASTHDATAIQTLLTQLGYPQSLEFIEKKIRLFESDERQFIFVADIDHKLAGFLSLTMIPQIALEGDFARIAYVCVDQQFRGKRIGQTLVAYAEQIAKSWGCNRMELHSGDHRKQAHEFYLGQNYEDAPKYFRKFL | failed
4 | MIEKILLAVSGLGHAEEMLKTLKEVPSIQSAKVTVLHVVPSQATSSAMTDKWEEGGKILANAIQALNLDPSQVSSILRQGDPKDVVCQVADEIDADLIIMGSRGLKRLQSILSNSVSQYVFQLSSRPMLLVKDDIYVKRIKRVMVAMDNSDAAKHCLNLALFLLRGIVGSQLILANVTTDLRGKTSEVSEISPDKNPVLASAVAEAQRYGIQTRCFTSSGKPGEEICRLADELNVDLLLLGSPDRRPSVAKNFVDIDRLIGASLSDYVRVNASCPVLLARTTG | failed
5 | MIEKVYEFKRDAKTKVVEKLVNTEHVQINHIVLPRGEQMPKHYSNSYVHLIIIKGEMTLTLEDQEPHNYKEGNIVYVPFNVKMLIQNINSDILEFFVVKAPHPKKLNAPEDPIKCE | not failed
6 | MIELDYLTIAFGGAIGAVLRYLVSRTINSLLPFSYIPLGTIIVNSVGSFFLSFLMFAAIEKVPLSKEAILFFGTGLLGAFTTFSTFTYETLSLIEESPARGVAYALANLLFAFTCAYFGMILGRGKV | failed
7 | MIENEFGEVSVDDQLIGDRATQIKTLTNGCICCSRSNELEDALLDLLDNLDKGNIQFDRLVIECTGMADPGPIIQTFFSHEVLCQRYLLDGVIALVDAVHADEQMNQFTIAQSQVGYADRILLTKTDVAGEAEKLHERLARINARAPVYTVTHGDIDLGLLFNTNGFMLEENVVSTKPRFHFIADKQNDISSIVVELDYPVDISEVSRVMENLLLESADKLLRYKGMLWIDGEPNRLLFQGVQRLYSADWDRPWGDEKPHSTMVFIGIQLPEEEIRAAFAGLRK | not failed
8 | MIEPSKITVEQWLNRWLTDYAKPHLRQSTWESYETVLRLHVIPTLGSIPLKKLQPADIQRLYASKLESGLSPTRVRYIHVVLHEAMSQARESGLLLQNPTEAAKPPRHPKKKVQPLEHHHHHH | not failed
9 | MIEQPYPSVADTDAAPPTAQGKIDQYFQISARGSTQRREVVAGITTFMAMVYAVFVVPGMLGKAGFDTSAVFVAVCLTTAFGSLLMGLWAKLPIAIGCAISLTAFMAFGLVLGQHLSPAVALGAVFLMGVVFTAISVTGVRTWILRNLPAGVAHGAGIGIGLFLLLIASNEVGLVIKNPGPGLPVSLGNITAFPVMMSILGLAAIFGLERRRVPGGILLVIVAISALGLVFDPSVKFTGIFALPTLSAPGHTSLIGAMDIRGALSAAVLPSVLALVMTAVFDATGTIRAVAGQANQLDATGRIHNGGRALTADSVSSIFSAFFGGAPAAAYIESTVGVAAGARTGLAAVTVGALFLAVMFFSPLAGLVPSYATAPALMYVGLLMLSSVSRLHMDDLVDALSGLVCAVFIVLTCNIVTGIMLGFCTLVIGRIVSGEWRKLNIGTVAIAVALAAFYAGGWAI | failed
10 | MIESIQELLQKEAQAVLNIPVTDAYEKAVELIVEQIHRKKGKLVTSGMGKAGQIAMNIATTFCSTGIPSVFLHPSEAQHGDLGILQENDLLLLISNSGKTREIVELTQLAHNLNPGLKFIVITGNPDSPLASESDVCLSTGHPAEVCTLGMTPTTSTTVMTVIGDILVVQTMKRTEFTIEEYSKRHHGGYLGEKSRKLCVK | not failed
11 | MIESVLLLVSGLPGSGKSTLARGMAEALAWPCLDKDDFLEALFDARGIGDAAWRRALSREADSRFLAALQAAPRAVACSWWRHPRGEGGSGTPIGGLARPGRLVLELHCRCPAELAAARFARRVRHPGHLDAQRDPGALSLQLRRAERLGPLGLGQCLILDASVQTDLSGALAWTRDALAAGALADPPRHPLEHHHHHH | failed
12 | MIFALHIMLRFVPNIVPLSIINKKTMTRIGLLSDTHAFWDDKYLKYFENCDEIWHAGDIGSVEVARKLSAFRPFRAVYGNIDGQDIRRLYPQTNRFTVDGAEVLIKHIGGYPGNYDPSIRGSLLVKPPQLFISGHSHILKVKYDKTLDMLHINPGAAGISGFHKVRTLVRFCIDNGEFKDLEVIELADKL | failed
13 | MIFENRLALSAMAGVNNAEFCRKQKASLVILGGFNADRRALEAAEKAVKRGRKEFLFGIDGIEGEIKKLGRRKFAVNVRSSSLEGYLNVAELVAEFEGIIEINAHCRQPEFVEIGCGEWLLFNHERLVEIVSKTSRIAPTFVKIRGGHKLDYEKIARKLFDAGCLAIHVDAMIPGGGCDFSLIERISRIGNVIGNNSFVDIESGERIIMAGAKMASAARAVLRDENFFEKMLRSPLLSQPVELSCGRFRLEHHHHHH | not failed
14 | MIFNTLARYFLKRYLMTTIWFVLGVSSIIYLADFSETARRMSGLPGYSVPAALGLTALRLPLILQQTVPFIALFVGMTTLISLNRRYELVVTRAAGISAWQFILPFVLGAVFIGILSVMVLNPIAAWGQNKSLAMEAGLRNDAGGGRQQEIIPWMRQSSGGKDTIIGAKSFEDNGTMLLDVVLIDVDKDGNIVSRKDAKSAKLEDGYWLLNGVSETRAGHVPVRQESMQISTNLRREFVQERMTQTETVAFFDLSHKIEVAKSFGLSSKALETQYHFLLSTPLLLVAMTLIAATVSLKFSRFAQSRSVILGGIVSGFVLYVVTVLVRAFGSGGVVPPTVAVWVPVIVALALGATILLHQEDG | failed
15 | MIFRLGDFRFPDDPARLYPDTPDRPWVLEIGFGDGRFWPHYARTFPEPPNYLGVEISGVSLLKAHRRLKDAGLTNAVLTKLPAEVLVAQVIPHGSLDAIIVNFPDPWPKAGHEDHRLLRVPFFQVAASRLKPGGAALLTTDHDEYFEFACAQAEASGVMRVERVGPPPAALETKYAQKWRDLGLGVNHARFVPTRHDPVPNGTFAPYSEEDPAVPHAVLTLPADFSPQHFDKLTVRGKTWTVVLLDLYATLRRGGWVALAHVVEGDLTQEVLVGITEREDGTHLVRLAKFGGPIITPGVKAAVGAVTEWLEGQGAVVKHRGY | failed
16 | MIFRQLFDPQSSTYTYLLADPASREALLIDPVFEQVRRDAALLDELGLRLVATVDTHVHADHVTGAWLLKQRTGSTIAISAASGAQGADRYLNDGDRCAFGARYLTVRATPGHTSGCISLVLDDESMAFTGDCLLIRGTGRTDFQQGDPRALYRAVHARLFTLPAACLLYPAHDYRGLTVTSVGEERRFNPRLGGDLSEDDFAGYMRNLGLAHPRQIDVAVPANLQCGVAANAPDALAAADWAPLVYTFAGFWEIDPQWLEDHLPAVQVVDVREPDEFAGPLGHLPGATPIPLGELAARTGELARDRPIVTVCRAGGRSAQATVILLKAGFDAVANLGGGMLRWRGEGRVVMDGRS | failed
17 | MIFSFIFKVAVISSSGALAPGPLTAATAAIGVKRGWKGGFWVSVGHAAVELPLVILIATGVAVVLTHSSALSLLSVAGGVMLLSFAFLTAKSAFSKTEEKAESSANPFSTGVALSALNPFFIAWWAGVGAVLITEAISLWGYAGIAVLYLSHVWLDFAWLILLAHLTSMAIFSAKAYRALLVALAALVFLFGVDFLHYGLFSKHLLPI | failed
18 | MIFYFSGTGNSKWIAEQIAKAQNEVLVFMPNAIRDGIEEFVLADDEKVGFVFPVYSWGPPLSVLRFLDWITLSNYHSQYVFFVCSCGDDTGLTEELFRRALSRKGMECNAGFSVAMPNNYVLLPGFDVDKKELEKKKLDEAVGRVEEINDSITGKKIGFHCNEGSFPWFKTKVLNPLFNRFMTSAKPFYATDDCIGCKRCERICPVGNVVMIGWRPVWGMDCTSCLACYHVCPKHAVQYGRRTKRKGQYLNPNVSISHEAAAQLEHHHHHH | not failed
19 | MIGEQPGDIFRRGEILNHTYEIEGVLGRGGTGEIYRARNLISGRIVAVKALNRRFSGNDDYIGLMRREEQLRDVIDDAVVRYTECSRSDGGHVFLVMDHIEGPSLAQAMEAGRIEARDLLIVAHRVAEGLRAAHRHGIVHRDLSPDNIILRGGAPERATIIDFGIAKDLSAGAQTIVGNDFAGKYEYAAPEQIDGRAEPRSDLYALGATLLAAFRGEAPFAGATPGEIVRRKGRPLDTEGVPEPLRGLIDRLAAPEAERRPASAAAVVEELDRLLRPQAEPDRRRRVWPALAALLLLAVLAVGGWIALRPPLAEPYRLTASAADLAGEAPDRAAAARIAAAYARAAGHESHGLRIARGAPEGWADAAAEVLALAATLDDWRLALNGAEAALSGRAPDARSAAMVETRFRDWASRRGFEPRLQIEVVPPPLDPQAVSALLQRHADCGPLSEGGTEGVITGAVATAETAAALERALADLRGDRPLHLAITVLNPAICAVRQALPDRPAQGLSIWLGEAATGAPNLAGIYGPGDYPLVEIRLPAGMSGLALWVGLVDVTGSVLNLLPNVYSDESRIDRLGTVANGVRTIRVMPLEFQVAGGTQLFALQVEARDFGRSELVAVVSRGDLFALRRPKDESVASFTEALSALRRDDPDRLVAVTRRLLESRPSR | failed
20 | MIGFIGSVFSPWYRWSGRKEPQNHCCLNVATYGPGGRFTMTDRGRAALRQSPDTLTVGPSRMHWTGTQLIVEVNEISSPPLVSPVKGRIVLTPTGITDVEVTLKDDGSHIWRPFAPTARIEVDLTQGHRWHGHGYFDANFGTAALEADFRFWTWGRYPVADGAACFYDATRRDGSRLELGLHVAADGRARLIQPPPEARFARSRWLVERHTPADPGTRPRQVMSMLDAPFYSRAMVETTVFGQKTVGVHEALDLRRFRSPLLMPMLAVRVPRRP | failed
